Test results taken from publication doi:10.1101/2024.11.27.625426 (bioRxiv, 2024).

Molecular target: N1-CA09-sNAp, stabilized neuraminidase protein of A/California/04/2009 (H1N1) (influenza A virus A/California/04/2009 (H1N1)) (UniProt C3W5S3)
Test: cryo-EM structure

**Q.** For “N1-CA09-sNAp, stabilized neuraminidase protein of A/California/04/2009 (H1N1) (from UniProt C3W5S3 1-469) (enzyme)”, which stoichiometry N is on record?
**A.** 4 protomers
